Assay results as given in patent US20030165488A1.
Like-named read-outs stand apart in the source and are kept apart here.

Assays:
[1] = tested on: T1, hCaspase-12 (recombinant human caspase-12 containing the Ser-205 to Gly mutation), 6-His fusion protein expressed in E. coli
T1 sequence: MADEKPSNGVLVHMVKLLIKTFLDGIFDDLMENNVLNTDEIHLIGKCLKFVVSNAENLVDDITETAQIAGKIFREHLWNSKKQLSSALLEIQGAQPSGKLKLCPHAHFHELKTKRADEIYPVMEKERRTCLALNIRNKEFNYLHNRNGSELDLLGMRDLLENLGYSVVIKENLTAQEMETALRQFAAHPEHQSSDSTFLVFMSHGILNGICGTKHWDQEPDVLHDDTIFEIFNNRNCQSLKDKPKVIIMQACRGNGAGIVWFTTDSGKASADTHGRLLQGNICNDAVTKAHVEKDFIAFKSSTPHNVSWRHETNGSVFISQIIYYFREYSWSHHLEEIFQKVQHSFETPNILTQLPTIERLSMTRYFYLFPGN

[2] = tested on: T2, ΔCARD caspase-12 (RIK-5), 6-His fusion protein expressed in E. coli
T2 sequence: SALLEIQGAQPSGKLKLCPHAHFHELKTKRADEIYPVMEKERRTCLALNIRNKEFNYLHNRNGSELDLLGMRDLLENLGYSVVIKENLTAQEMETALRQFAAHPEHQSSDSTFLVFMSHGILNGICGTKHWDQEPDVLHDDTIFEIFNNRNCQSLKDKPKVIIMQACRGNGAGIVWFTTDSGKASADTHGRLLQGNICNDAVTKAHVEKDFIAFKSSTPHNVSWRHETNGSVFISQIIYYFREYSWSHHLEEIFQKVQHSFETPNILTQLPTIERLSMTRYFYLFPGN

[3] = biological target: DEVD-R110 substrate (Homogeneous Caspase Assay, Roche Biochemicals); experiment: cell-based or functional assay
[4] = biological target: T3, DEVD-R110 substrate (Homogeneous Caspase Assay, Roche Biochemicals)
T3 chain: DEVD

[5] = biological target: T4, procaspase-3 immunoprecipitated from SH-EP cell lysates, P42574
T4 chain: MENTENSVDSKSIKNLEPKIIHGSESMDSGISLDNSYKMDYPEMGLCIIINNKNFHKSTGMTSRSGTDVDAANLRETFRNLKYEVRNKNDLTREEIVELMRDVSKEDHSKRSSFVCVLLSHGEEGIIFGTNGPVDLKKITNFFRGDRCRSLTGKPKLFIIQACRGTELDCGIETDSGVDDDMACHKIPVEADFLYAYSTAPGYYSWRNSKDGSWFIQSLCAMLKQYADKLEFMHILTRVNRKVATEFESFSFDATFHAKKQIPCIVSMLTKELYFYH

Molecule: calpain II (Calbiochem)
- cleavage of human caspase-12, Western blot [1]: calpain II cleaves both hCaspase-12 and the ?CARD variant and that this cleavage is calcium dependent
- cleavage of human caspase-12, Western blot [2]: calpain II cleaves both hCaspase-12 and the ?CARD variant and that this cleavage is calcium dependent

Molecule: control (non-caspase protein) preparation
- Measured fluorescence intensity (RFU), free rhodamine-110 released from DEVD-R110 [3]: 31 RFU

B1: hCaspase-12 (recombinant human caspase-12 containing the Ser-205 to Gly mutation), 6-His fusion protein expressed in E. coli (protein)
chain: T1 sequence
- Measured fluorescence intensity (RFU), free rhodamine-110 released from DEVD-R110 [4]: 807 for hCaspase-12
- procaspase-3 processing, Western blot with antibody to full-length caspase-3 [5]: when procaspase-3 was incubated with recombinant human caspase-12 or the ?CARD variant, lower molecular weight bands indicative of cleaved mature subunits were observed

B2: ΔCARD caspase-12 (RIK-5), 6-His fusion protein expressed in E. coli (protein)
chain: T2 sequence
- Measured fluorescence intensity (RFU), free rhodamine-110 released from DEVD-R110 [4]: 445 for ?CARD
